Reference: article PMC2800223

Biological target: GST-HuD (UniProt P26378)
Assay: filter binding

GST-HuD, sequence (P26378 whole entry): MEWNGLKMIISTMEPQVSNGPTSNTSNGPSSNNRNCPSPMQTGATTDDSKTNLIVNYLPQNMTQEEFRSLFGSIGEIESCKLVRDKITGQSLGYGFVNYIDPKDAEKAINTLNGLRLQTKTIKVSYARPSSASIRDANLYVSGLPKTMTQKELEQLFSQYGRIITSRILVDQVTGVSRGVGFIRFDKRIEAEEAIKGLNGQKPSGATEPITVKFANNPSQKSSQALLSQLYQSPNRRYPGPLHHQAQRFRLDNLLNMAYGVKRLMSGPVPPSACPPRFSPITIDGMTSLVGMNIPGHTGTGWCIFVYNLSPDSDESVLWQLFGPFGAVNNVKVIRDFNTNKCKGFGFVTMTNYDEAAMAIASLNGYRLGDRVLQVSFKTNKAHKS

Sequence	Kd [nM]
CCCUCCCUCUCUC [motif 1 oligoribonucleotide]	27.3
UUUUGUUUUGUUU [motif 2 oligoribonucleotide]	6.9
